These results are taken from the supplement of paper PMC10567573.

The chains are these.
B1: POMT2 (parent)
chain: YHEAPMTRKHYQVTGYGINGTGDS
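Further: lentivirally expressed fusions sorted by FACS into six bins by GFP to DsRed ratio, PSI derived from sequencing read proportions per bin multiplied by bin number.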

This data set covers variants of B1. Briefly: protein stability index of a GFP-peptide fusion (GPS, HEK-293T) (PSI 1-6); higher = more stable. To be noted: c terminus: a fixed tail appended.
In the case of YHEAPMTRIHYQVTGYGINGTGDS, the protein stability index stood at 2.12.
Next, YHEAPMTRVHYQVTGYGINGTGDS: 2.35; YHEAPMTRMHYQVTGYGINGTGDS: 2.3; YHEAPMTRLHYQVTGYGINGTGDS: 1.97.
Take YHEAPMTRDHYQVTGYGINGTGDS: the protein stability index stood at 3.42.
With YHEAPMTRSHYQVTGYGINGTGDS the figure was 2.29.
On to YHEAPMTRQHYQVTGYGINGTGDS, for which the protein stability index is 2.9.
With YHEAPMTRNHYQVTGYGINGTGDS the figure was 2.47; with YHEAPMTRGHYQVTGYGINGTGDS, 2.51; with YHEAPMTRRHYQVTGYGINGTGDS, 1.87.
With YHEAPMTRTHYQVTGYGINGTGDS the figure was 2.7; with YHEAPMTRHHYQVTGYGINGTGDS, 1.84.
Regarding YHEAPMTREHYQVTGYGINGTGDS, the protein stability index was 3.29.
Next, YHEAPMTRFHYQVTGYGINGTGDS: 2.13; YHEAPMTRCHYQVTGYGINGTGDS: 2.42.
With YHEAPMTRYHYQVTGYGINGTGDS the figure was 1.76; with YHEAPMTRPHYQVTGYGINGTGDS, 2.76.
With YHEAPMTRWHYQVTGYGINGTGDS the figure was 2.07; with YHEAPMKRKHYQVTGYGINGTGDS, 1.86; with YHEAPMWRKHYQVTGYGINGTGDS, 3.27.
Turning to YHEAPMHRKHYQVTGYGINGTGDS, the protein stability index was 2.03.
Consider YHEAPMQRKHYQVTGYGINGTGDS, for which the protein stability index came to 2.57.
Consider YHEAPMLRKHYQVTGYGINGTGDS, for which the protein stability index stood at 1.79.
Next, YHEAPMSRKHYQVTGYGINGTGDS: 2.3; YHEAPMDRKHYQVTGYGINGTGDS: 2.66; YHEAPMVRKHYQVTGYGINGTGDS: 2.07.
Next, YHEAPMIRKHYQVTGYGINGTGDS: 2.45; YHEAPMERKHYQVTGYGINGTGDS: 2.39.
Next, YHEAPMPRKHYQVTGYGINGTGDS: 2.42; YHEAPMFRKHYQVTGYGINGTGDS: 1.92.
For the variant YHEAPMGRKHYQVTGYGINGTGDS, the protein stability index worked out at 2.08.
With YHEAPMARKHYQVTGYGINGTGDS the figure was 2.33; with YHEAPMNRKHYQVTGYGINGTGDS, 1.82; with YHEAPMCRKHYQVTGYGINGTGDS, 2.2.
Take YHEAPMRRKHYQVTGYGINGTGDS: the protein stability index amounted to 1.87.
For the variant YHEAPMMRKHYQVTGYGINGTGDS, the protein stability index came out at 2.17.
Next, YHEAPMYRKHYQVTGYGINGTGDS: 1.47; YHEAPMTRKHYQGTGYGINGTGDS: 2.52; YHEAPMTRKHYQATGYGINGTGDS: 2.76.
With YHEAPMTRKHYQKTGYGINGTGDS, the protein stability index was 2.68.
Next, YHEAPMTRKHYQMTGYGINGTGDS: 2.59; YHEAPMTRKHYQSTGYGINGTGDS: 3.32.
Next, YHEAPMTRKHYQPTGYGINGTGDS: 2.34; YHEAPMTRKHYQITGYGINGTGDS: 2.21; YHEAPMTRKHYQTTGYGINGTGDS: 2.6.
Take YHEAPMTRKHYQYTGYGINGTGDS: the protein stability index stood at 2.97.
With YHEAPMTRKHYQRTGYGINGTGDS the figure was 3.24; with YHEAPMTRKHYQFTGYGINGTGDS, 2.08; with YHEAPMTRKHYQLTGYGINGTGDS, 2.69.
With YHEAPMTRKHYQETGYGINGTGDS the figure was 3.61.
As for YHEAPMTRKHYQDTGYGINGTGDS, the protein stability index came to 3.46.
Consider YHEAPMTRKHYQQTGYGINGTGDS, for which the protein stability index was found to be 3.11.
On to YHEAPMTRKHYQWTGYGINGTGDS, for which the protein stability index came out at 2.23.
Consider YHEAPMTRKHYQNTGYGINGTGDS, for which the protein stability index was 2.65.
For YHEAPMTRKHYQHTGYGINGTGDS, the protein stability index came out at 2.84.
For YHEAPMTRKHYQCTGYGINGTGDS, the protein stability index is 2.14.
Next, YHEAPMTRKHYQVNGYGINGTGDS: 2.39; YHEAPMTRKHYQVGGYGINGTGDS: 3.05.
Next, YHEAPMTRKHYQVLGYGINGTGDS: 1.99; YHEAPMTRKHYQVYGYGINGTGDS: 1.54; YHEAPMTRKHYQVMGYGINGTGDS: 2.05.
With YHEAPMTRKHYQVHGYGINGTGDS, the protein stability index was found to be 2.53.
Next, YHEAPMTRKHYQVVGYGINGTGDS: 1.84; YHEAPMTRKHYQVSGYGINGTGDS: 2.03; YHEAPMTRKHYQVEGYGINGTGDS: 2.96.
Next, YHEAPMTRKHYQVQGYGINGTGDS: 2.87; YHEAPMTRKHYQVWGYGINGTGDS: 1.41.
For the variant YHEAPMTRKHYQVCGYGINGTGDS, the protein stability index was 3.13.
Next, YHEAPMTRKHYQVDGYGINGTGDS: 3.36; YHEAPMTRKHYQVFGYGINGTGDS: 2.57; YHEAPMTRKHYQVAGYGINGTGDS: 1.85.
With YHEAPMTRKHYQVIGYGINGTGDS the figure was 2.12.
For YHEAPMTRKHYQVRGYGINGTGDS, the protein stability index is 2.13.
With YHEAPMTRKHYQVKGYGINGTGDS the figure was 1.97; with YHEAPMTRKHYQVPGYGINGTGDS, 2.54; with YHEAPMTHKHYQVTGYGINGTGDS, 3.02.
Next, YHEAPMTVKHYQVTGYGINGTGDS: 2.55; YHEAPMTWKHYQVTGYGINGTGDS: 1.62; YHEAPMTMKHYQVTGYGINGTGDS: 2.68.
Turning to YHEAPMTNKHYQVTGYGINGTGDS, the protein stability index was found to be 2.82.
Turning to YHEAPMTAKHYQVTGYGINGTGDS, the protein stability index was 2.61.
Turning to YHEAPMTSKHYQVTGYGINGTGDS, the protein stability index stood at 2.6.
Next, YHEAPMTTKHYQVTGYGINGTGDS: 2.44.
For YHEAPMTDKHYQVTGYGINGTGDS, the protein stability index came to 3.19.
Next, YHEAPMTYKHYQVTGYGINGTGDS: 2.09; YHEAPMTGKHYQVTGYGINGTGDS: 2.74.
For YHEAPMTIKHYQVTGYGINGTGDS, the protein stability index came to 1.94.
With YHEAPMTQKHYQVTGYGINGTGDS the figure was 2.86; with YHEAPMTCKHYQVTGYGINGTGDS, 1.95.
Turning to YHEAPMTLKHYQVTGYGINGTGDS, the protein stability index was 3.16.
As for YHEAPMTFKHYQVTGYGINGTGDS, the protein stability index is 2.09.
On to YHEAPMTEKHYQVTGYGINGTGDS, for which the protein stability index is 3.
As for YHEAPMTKKHYQVTGYGINGTGDS, the protein stability index amounted to 2.44.
With YHEAPMTPKHYQVTGYGINGTGDS the figure was 2.31.
